From patent publication US8734776B2 (ZymoGenetics, Inc., priority 2003, dated 2014)
Where two headings read alike, the source gives them in different places.

Assays:
[1] = test system: dengue virus; type: cell-based; conditions: Vero cells
[2] = test system: west nile virus; type: cell-based; conditions: Vero cells
[3] = test system: vaccinia virus; type: cell-based; conditions: Vero cells
[4] = test system: rhino virus; type: cell-based
[5] = test system: pichinde virus; type: cell-based
[6] = test system: influenza virus; type: cell-based; conditions: Influenza (type A [H3N2])
[7] = test system: coxsackie virus; type: cell-based; conditions: Coxsackie B4 virus, KB cells
[8] = test system: rhino virus; type: cell-based; remark: listed apart in the source
[9] = test system: polio virus; type: cell-based; conditions: Vero cells
[10] = test system: BCBL-1 cells
[11] = test system: OAS; experiment: OAS activity in serum and plasma of mice (RIA)
[12] = test system: HHV-8; experiment: HHV-8 replication in BCBL-1 cells (TaqMan PCR)
[13] = test system: pichinde virus; type: cell-based; remark: listed apart in the source
[14] = test system: coxsackie virus; type: cell-based; conditions: Coxsackie B4 virus, KB cells; remark: listed apart in the source
[15] = test system: adenovirus; type: cell-based; conditions: A549 cells
[16] = test system: respiratory syncytial virus; type: cell-based; conditions: MA-104 cells
[17] = test system: influenza virus; type: cell-based; conditions: Influenza (type A [H3N2]); remark: listed apart in the source
[18] = Maden-Darby Canine Kidney cells

B1: IL-29: human IL-29, previously designated zcyto21, SEQ ID NO:4 (protein, listed as Homo sapiens)
chain: MAAAWTVVLVTLVLGLAVAGPVPTSKPTTTGKGCHIGRFKSLSPQELASFKKARDALEESLKLKNWSCSSPVFPGNWDLRLLQVRERPVALEAELALTLKVLEAAAGPALEDVLDQPLHTLHHILSQLQACIQPQPTAGPRPRGRLHHWLHRLQEAPKKESAGCLEASVTFNLFRLLTRDLKYVADGNLCLRTSTHPEST
modifications: SIGNAL (1)...(19)
B1 was tested, and the “EC50 NR” value [1] was 0.05 mg/L, the “IC50 NR” value [1] was over 10 mg/L and the “EC50 NR” value [2] was 0.00025 mg/L. The “IC50 NR” value [2] was over 10 mg/L, the “EC50 Visual” value [3] was over 10 mg/L and the “IC50 Visual” value [3] was over 10 mg/L. The “EC50 Visual” value ([4]; Rhino 2, KB cells) was over 10 mg/L, the “IC50 Visual” value ([4]; Rhino 2, KB cells) was over 10 mg/L and the “EC50 Visual” value ([4]; Rhino 9, HeLa cells) was over 10 mg/L. For the same molecule, the “IC50 Visual” value ([4]; Rhino 9, HeLa cells) was over 10 mg/L, the “EC50 Visual” value [5] was over 10 mg/L and the “IC50 Visual” value [5] was over 10 mg/L. The “EC50 NR” value [6, 18] was over 10 mg/L, the “IC50 NR” value [6, 18] was over 10 mg/L and the “EC50 NR” value ([6]; Vero cells) was 2 mg/L. The “IC50 NR” value ([6]; Vero cells) was over 10 mg/L, the “EC50 Visual” value [7] was over 10 mg/L and the “IC50 Visual” value [7] was over 10 mg/L. For the same molecule, the “EC50 NR” value ([8]; Rhino 2, KB cells) was over 10 mg/L, the “IC50 NR” value ([8]; Rhino 2, KB cells) was over 10 mg/L and the “EC50 NR” value ([8]; Rhino 9, HeLa cells) was 0.982 mg/L. The “IC50 NR” value ([8]; Rhino 9, HeLa cells) was over 10 mg/L, the “EC50 NR” value [9] was over 10 mg/L and the “IC50 NR” value [9] was over 10 mg/L. The TC50 [10] was over 10 mg/L, the “OAS activity in the serum and plasma of mice” value ([11]; C57BL/6 mice, i.v, 10 μg-250 μg) was “induced OAS activity” and the “OAS-1 hr (OAS activity)” value ([11]; mouse plasma, 250 μg i.v., 1 hr) was 80 pmol/dL. For the same molecule, the “OAS-6 hr (OAS activity)” value ([11]; mouse plasma, 250 μg i.v., 6 hr) was 80 pmol/dL, the “OAS-24 hr (OAS activity)” value ([11]; mouse plasma, 250 μg i.v., 24 hr) was 180 pmol/dL and the “OAS-48 hr (OAS activity)” value ([11]; mouse plasma, 250 μg i.v., 48 hr) was 200 pmol/dL. The “TI (TC50/IC50)” value [12] was over 1.85, the “IC50 HHV-8 viral replication” value ([12]; extracellular HHV-8 DNA) was 6.5 mg/L and the “EC50 NR” value [13] was over 10 mg/L. For the same molecule, the “IC50 NR” value [13] was over 10 mg/L, the “EC50 NR” value [14] was over 10 mg/L and the “IC50 NR” value [14] was over 10 mg/L. For the same molecule, the “EC50 Visual” value [15] was over 10 mg/L, the “IC50 Visual” value [15] was over 10 mg/L and the “EC50 Visual” value [16] was over 10 mg/L. For the same molecule, the “IC50 Visual” value [16] was over 10 mg/L, the “EC50 Visual” value [17, 18] was over 10 mg/L and the “IC50 Visual” value [17, 18] was over 10 mg/L. For the same molecule, the “EC50 Visual” value ([17]; Vero cells) was over 10 mg/L and the “IC50 Visual” value ([17]; Vero cells) was over 10 mg/L.
